Measurements from the domain aggregation screens of Martell et al. (2025).

Assay: soluble fraction after stress (log2 fold change); higher = more stays soluble; pooled small domains, quantitative proteomics
Details: stress: pH 4
In short: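 With high-throughput quantitative proteomics, pooled custom libraries of small protein domains were measured after pH 4 stress. Each domain's soluble amount after the stress gives a fold change taken as aggregation propensity. Higher log2 values mean more of the domain stayed soluble.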

Sequence	soluble fraction (log2)
HMVVSDKIAFSSFLKSVEDGRVVEVEITGNDIRGILSDGTVFNTYAPNDPNLVEKLTSKGVNITALPKE	0.0738
HMTTAASIGRLVRDARKQRGLTQHELASLLSTSQSAIHRIESGNQNLSLEMINRIAQALESPLIVPGG	-0.343
HMLQVRRILQLLADGYSKRQISQQTAVSRNTIDSYEDRFHLTGKSYQELLSMEDGELSGIVYP	0.321
HMFDLENIRLTLARRLNVAAHLRPKYVAGFTLLLKQNFPEQNAEDLLNRLEHNQWLKVNQREIEYSPRLLM	-1.23
HMKQETLNEIGTKIRKLRESKNLSIQEFADKLEMEYNNVIRIEKGRTNFTIGTLVKIANSLEVNLKDI	-1.01
HMSKTDYKILYSDLNREDAKQLSLLLEDKKIPYQTSEDGKTIKIPEGMVNRFRMEVATMGVNF	-0.014
HMNMFGIQRRNHLLSLLQEKKSITVQEAAVIFEVAEETIRRDFRTMEGQGLIVRTHGGALLADD	-1.14
HMFPELEPDEQLIADLLRKTNNLQINIITVRTGLPINRVTALLFQMEMKGVVRPLAGGTYHLLV	-0.389
HMGDHYTALGLSIDATPEEIRSAYFLAARRSHPDANPDAQTTEWFLRVQEAYDILSNPRRRAEYDASLP	-1.46
HMSGRIWTDNYGRTIEADVIKVNINRTVLLEFTDKKTKTVSFDTFISKDIQYLEYLLTRRNRGKL	-1.14
HMADPVTPQDLIRWSEALAGIARTGLGFTQSLYEQERFEEVLAVAADMRVAAGSSYNPDDLVHEWMKSVG	-0.34
HMTKVIEFLVSDEEHGVRADKAFVSHNQKLSRSYFKKLILNGNLYINNKVNLDPSYKLIKGSTVRIILPE	-0.698
HMEEPLIISIDSNGAVYLEVDSFKDQSIEMSSLREIIEKIILANPDIQVVVRGDSEVKYEKVMDLMSILQS	-1.95
HMGDERDRLLLARGKRIYQELIGSDRENVAAALREFEAVLAVNNRRAIHVMRQRLAELFGVYEEFLNEEFL	-1.29
HMVGKIVVPHLEGKPAEMARDILARDGFKSVHEEVLPSAEFGAGRVVRTEPHAGTNVAKTDPVTIFVSVGL	-0.0761
HMSVSVNAPMPGNILDVRAKTGESIQKGQVIVILEAMKMENEIMAPQDGKISSINTSKGSTVNSGDLLFTM	-0.693
HMNQNIYVPKLEGLQIEEASSILKSKGLNIEITDSIFRKDAVPGAIIEQTPKPNSRVKTGRNIYVSIYSK	-0.199
HMPSIGKNILYYRKKRNMTIDELSKKSGVSKSMLSQVEQEKTNPTVVTVWKIARSLDVSINQLLQT	0.136
HMYAVDTIHKGTITEMTDKGAVVSLGDNIDGFAPARQLVKEDGTTLKLGDTADFKVIEFSKATKRITLSH	0.094
HMDFDQELFDKIVEATMDEARAAMDTDDKNVREERWNKLIEHWHELFLEDYPEMDKYLEEITYKFQKNPAT	-1.23
HMRRHLLEMNDAIGRLGRLISEDPADRDVAEVIWAALRGMVMGQMIMNEPIDWQRERRTLVEMAIGR	0.119
HMELSPVDLGERLKIARETANFTQDAAAKAVGIARTTLVSIEKGQRTARLDEIQALSRFYGVSANALLR	0.0374
HMAGTELASIKEIQSLVDRSEEALSARNFFWPKDKSESMLLSFRNMFSRLKLTKMDVQIFHGIFKVMEKS	0.0341
HMPPSQRVNRILSLAGITSRRKADEYILEGRVTVNGEVLKEPGAKAVWGTDDIRVDGKPIPALS	0.275
HMKNVENIILEQLKKNIYDDLNNASFEEIILIDAEKSIYKGTIKANYIEYNFKINLSTGEILKWKLK	-0.763

Sequence	soluble fraction (log2)
HMTEDQDWAIFKQKLKAQTEIDLDLYKEPQMKHRIKNLIQNAGFDSYVQYFDYVYLNQDRLAAFLENLTV	-1.15
HMGVLDFSAQLLKHLEMNGGQTPLGDKSPAEEIYAVFGVSKKVFKKAVGDLYRKRLIEISSNGIRMTS	0.336
HMAFYQDIAVDLRKQIIDGVYPKNSRLPNQAELAKLYTTSRVTIQKALKILQIEGLIEGRQGSGSYVKGP	0.0757
HMSHANAALTPRARLRLAKLIVEEHWPVATAAKMFMVSPPTARKWATRFRAEGPAGMADRSSRP	0.123
HMYDAEAINKFFDIENWDFGETFYFQELSAYIMNQLSPKLVTILIVPRQTTQAFGSLFEIKSEPDEIFAS	-0.0578
HMREIDIWVAEDADSQRIDKYLSMVVEDLSRSRIASLIEGGSILVNGEVIRAKYKVKPADHITAAFEDEM	-0.938
HMKVKGVYQLDNGYWGYRFTMLVNGKTVSQRRVKDESGNPFKTEKKAEKARLVAMAEEQTKANK	0.125
HMEIGLIRVDSRLIHGQVITKWLNYSKANVIVVVDDELSKDSFMSEIYKASAPNGIIVEILSIDDFMKNT	-0.142
HMEKVTAPMPGVINSIVKNVGDTVKRGDVVLILEAMKMENEIVAPKEGKIASINVAKGASVNAGDVLFSI	0.197
HMAPTVPEVVRLEEGAARSAIEAAGLSVGSVEFRASSDPAGTVLATRPIAGRKVRPSSAVDLVLSDGRTP	0.0751
HMWQPIKLDRGDWQNSLQVGDRVFVRGIPRPVEILSAVDEENNIEVLMGTMRAKIPVYQLDKPAENFIDTT	-0.711
HMSSTSISFNDFQKYWLSNDIKSFQLREDKMTVQGSLKNGTAYETVVPSERLFQFIGQHPKD	-0.127
HMLQEHVLEIRHPSWNDAFRIIGHDGWRTQTGAHAAILSYDEEELNIKWDSWGYERFIRDEKGIFRLAA	-0.165
HMNVESLVGKQVIVSETIDNLKATGQVKVNGLEWTARAADETDIIPQGTEVTINEVSGVKLIVSR	0.0287
HMGKDLLGYEVFAESGDLVGILKDVMWLPHSDVYVITKGGKEFLIPVIPEVVKGINHEQGVIVISPMEGLL	-0.572
HMGKGGVAYLLESEFGIELPKDMQREFGPIANDIVDSLGREVSGAELKSMFWKEYIERETPFLLLLVTGQL	-0.762
HMQSLSDQVFFYLKERIINNEMVPGSIISIEKLTSEFGISNTPVREAIVRLAGLDLVTIHRNKNITVS	-0.707
HMNVPYEMVTQNGEVFYKYKVQPGEGVFAVSRTFSVSVAEILRVNPEANKGLKNGQVLLIPVPKDMIA	-0.147
HMQDAVASEKIQLMSEALHARDTGDLLLAKEKVEKLIALAPNDKNIQALLLTINQSIEDKGL	-0.0958
HMTIDTSNDLLNQITEATSKGPISILELKDQLNVNASDIEGELRTLIDQHLVFLKDGMLQVIPFD	-0.423
HMDNQYGVYSDEKNNVEIHWKRIDHPSVAKDHLDIEAYQNGKRVDINNQQADHYRYLINQEMNE	0.226
HMVVPELNLAQQDVLRALRQRGRATADHLSVDTHRPVSEVMGILLGLEIAEVLYRVEGGWFVPKTAR	-1.04
HMGGEEPYGSGSLRLAAGAVVPSGYTIKGNEDSMLYHTTESPWYKQTIAEVWFNAESAAQRAGFTRWDAKD	-0.672
HMQIIGEQNQKDFIALFGAILRMRNLLLSFDEFKGNELISERDLQDYLGRYQDLRDEWRNKRRER	-0.654
HMNSNIIKTINDELSIRKGKYGPYIMYKTKKMKRPKFKSIGDNTPDEFLADKGSISEIILWIN	-0.452

Sequence	soluble fraction (log2)
HMPEKKKYGDFVSMTEEEYGKLVSEYGQEAAKRMVEILNNYKGATGKPYKSDYLAILNWVVKRIKEE	0.077
HMTPVTYELTVQSGAGQRIDKYLSEQLADLTRSYLQKLLKDGGVTVNGKTVKSNYKLSENDQIFLEVPDA	0.0962
HMKKSTLLLFFLKELLEGKKISLKSFALENDINIRTAQRYIEDIEEAFPDNLLKENDFYSFV	-1.05
HMDTLHGRILEEFSRKIVDGTWPPGFSLPKETELADQYGVSRMTMNKVLTRLASDGFVIRRKRSGTVVAQP	-0.176
HMPSEDELAERLRGAIRQGDILNEGRMPPERALAEHFGVSRARLRLALGLLQEDGTIYRRHGQGTFAT	-0.0169
HMPRNMTFAIRGEYITLDALLKAVGAADSGAQAKHRIAEGEVTVDGVVETRKTRKLRGGETVVVDDLAVVL	-1.4
HMSIDNALLTLIGKTGTAQTVLRPSGKVVIGDEVYDAVTAGEFIDKGSAIVVTRVEATQLYVEASEA	-0.343
HMSSVVARRARIATLVVETSVASQEELGRLLADEGITVTQATLSRDLDALGAVKVLSADGGTRYRIPGQ	-0.45
HMGEENLKYPLLTDGSVKTTVLEAIDKDEKWLREELAKQGYDDLSKLFLVDYLGGQLVVTPY	-0.887
HMLINLGPRIRKERRSKGISQSDFSKNLGISASYLNLLENGRRTLTVPLLIKIGNELNLSLKDL	0.113
HMGQQTVEPLSRRELEVLSLLAKGLSNQQIADRLVISVRTVKKHVENIHGKLGVQSRTQAVARARELGLV	-0.688
HMGDLAAAGNHTLEVMGFPQHPDESYRHFVGNGIPKLIERMLPAGHDKETEQKAYDIFMEYYSAHK	-0.439
HMKVSDPEAIKLIEQAQVKVIPFLDISEAADIQIALEELKNSEGTGQTDSAKVRLRNLLSPFSYL	-1.12
HMGIMNFDTWLKSLPGTPTPTIAAKKSGLAAPTLLRHVERGYSTADNVIAIAKAYGVSPIDALVDNGML	-0.201
HMALTAEVLRSLIKHHGLGQSIQRTAKAVGLSASTVKKYFDRIAAANLTWQEAKSRTQEELIASLQPT	0.107
HMDNFDVVLTSPGDQKVQVIKAVRSITGLGLKEAKDLVDGAPNTVKEGVKKLDAEEMLKQLTEAGATGEL	-0.366
HMASVGTHIKRLRAAKRMTQEELAEQLHVTRQAVSAWETGKALPDVEMLERIAAALDADVTEVIYGA	-0.24
HMRALPAGQADLLKWIDGVTPRSVEELELLSGLEPGRLSELLMELELAGIVRAVAGDSYIKISKS	-0.534
HMVSLRQQVYDYLRSQMNQGELRPGSAINLGEMSSRFGISRTPLREALLQLETEGFVTIYPRKGIIVN	-0.243
HMETFNMTQKEITRLRVINQAIDKVITIREAAELLGLSERQVIRLKGGVEKFGPAFIIHKNRGRKP	-0.265
HMLLKIRPDLDGNEIMKLLNIAAGPNVGKAYEHLLELRLEHGPLGKERAEQELMNWWSARSQ	-0.371
HMIIIMKMGADESQVQETIKRIKDLGFNTHLSKGENRTIIGVIGDVSSIDESDVERLRATPYIAEVVRVS	0.417
HMQNKRQEQLLALLAERRDYMTSRQLAEILQVSDRTIRSDVEAINRRSSPPPIESNVRQGYRLNPEA	-0.0908
HMHHGALKQALLDETARILAEEGESALSLRRLASNLGVSRTAPYNHFDNKDALLSAVAEEGFRR	-0.0708
HMRPTVNETQIREVFRSILGREVDPEGLRHYLGQAAKGWSIDQIRADVNNSQEAHQRRAELARQAEELK	-0.217
